Laboratory results as given in patent US20260285989 (published 2026).

T1: IL-18RAP ECD-His (human)
T1 chain: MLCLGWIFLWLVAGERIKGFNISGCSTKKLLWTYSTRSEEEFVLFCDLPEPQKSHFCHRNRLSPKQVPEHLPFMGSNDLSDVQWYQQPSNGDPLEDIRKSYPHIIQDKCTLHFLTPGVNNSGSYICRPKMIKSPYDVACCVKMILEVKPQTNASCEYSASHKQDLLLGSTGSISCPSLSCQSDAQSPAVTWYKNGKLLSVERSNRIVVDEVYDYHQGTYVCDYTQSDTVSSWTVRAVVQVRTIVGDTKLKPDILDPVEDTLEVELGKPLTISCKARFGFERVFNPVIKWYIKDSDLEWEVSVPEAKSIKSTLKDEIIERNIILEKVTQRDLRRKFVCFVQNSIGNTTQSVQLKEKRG

T2: IL-18R1 ECD-His (human)
T2 chain: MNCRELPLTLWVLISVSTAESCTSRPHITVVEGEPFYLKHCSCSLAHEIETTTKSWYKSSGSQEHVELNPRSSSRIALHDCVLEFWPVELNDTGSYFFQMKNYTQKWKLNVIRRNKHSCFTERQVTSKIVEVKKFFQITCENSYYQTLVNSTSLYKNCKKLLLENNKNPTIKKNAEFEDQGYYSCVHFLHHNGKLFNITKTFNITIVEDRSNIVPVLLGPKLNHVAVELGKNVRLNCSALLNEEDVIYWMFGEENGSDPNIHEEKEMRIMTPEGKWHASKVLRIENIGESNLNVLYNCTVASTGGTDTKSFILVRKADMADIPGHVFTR


Target: T1, IL-18RAP ECD-His
Test: BLI

Binder	Kd
Rap-F11-hFc (antibody, V domains shown) VH: QVQLQESGGGSVQPGGSLRLSCAASGFTYIPAYMGWFRQAPGKERERVASIKTDGSTTYADSVNGRFTIAQDTAKNTLYLQMDSLKPEDTAMYYCAAYQFGAFRVWGQGTQVTVSS	4.58 nM
Rap-A10-hFc (designed binder) QVQLQESGGGLVQAGGSLKLSCAASGYTYGPYCMGWFRQFPGKEREGVAAVGGDGRTWYGNSVKGRFTISQDNAKKTLYLQINALKPEDTAMYYCAADFDRTVCSDDIYDYTYRGQGTQVTVSS	0.53 nM
Rap-C10-hFc (antibody, V domains shown) VH: QVQLQESGGGSVQPGGSLRLSCAASGFTYIPAYMGWFRQAPGKERERVASISSTDGSTTYADSVKGRFTVSQDTAKNTLYLQMNSLKPEDTAMYYCAAYQFGAFRVWGQGTQVTVSS	1.73 nM

Now from value to binder:

Kd	Binder
0.986 nM	hzRap-A10-hFc (designed binder) EVQLLESGGGLVQPGGSLRLSCAASGYTYGPYCMGWFRQAPGKEREGVAAVGGDARTWYGNSVKGRFTISRDNSKNTLYLQMNSLRAEDTAVYYCAADFDRTVCSDDIYDYTYRGQGTLVTVSS
4.85 nM	hzRap-F11-hFc (antibody, V domains shown) VH: EVQLVESGGGLVQPGGSLRLSCAASGFTYIPAYMGWFRQAPGKERERVASIKTDASTTYADSVEGRFTISQDNAKNTLYLQMNSLRPEDTAVYYCAAYQFGAFRVWGQGTLVTVSS
6.24 nM	hzRap-C10-hFc (antibody, V domains shown) VH: EVQLVESGGGLVQPGGSLRLSCAASGFTYIPAYMGWFRQAPGKERERVASISSTEGSTTYADSVKGRFTISQDNSKNTLYLQMNSLRPEDTAVYYCAAYQFGAFRVWGQGTLVTVSS

Target: T2, IL-18R1 ECD-His
Test: BLI

Binder	Kd
R1-C10-hFc (antibody, V domains shown) VH: QVQLQESGGGSVQAGETLRLSCTASGSTFDEYDMGWYRQAPGNKCELVSTISTIDGSTYYADSVKGRFTISQDNTKNTVYLQMNSLKPEDTGVYYCEADDRGTWDRGGCWGQGTQVTVSS	0.0281 nM
R1-A12-hFc (antibody, V domains shown) VH: QVQLQESGGGPVQAGGSLRLSCSASTTAYDNACMGWFRQAPGKEREGVASIHLRDRTYYADSVKGRFTLSRDGASKTLYLQMNSLKPEDSGTYYCASSNICNGLNLQGNTYWGQGTQVTVSS	2.82 nM
R1-F9-hFc (antibody, V domains shown) VH: QVQLQESGGGSVQAGETLRLSCTASGFTVHDMGWYRQAPGNECELVSTISSDGSTYYADSVKGRFTISQDNAKNTVYLQMNSLKPEDTAVYYCAADHFTGLQLAECKADFGYWGQGTQVTVSS	1.1 nM
hzR1-A12-hFc (antibody, V domains shown) VH: EVQLVESGGGLVQPGGSLRLSCAASGTAYDNACMGWFRQAPGKEREGVASIHLRDRTYYADSVKGRFTISRDNSKNTLYLQMNSLRAEDTAVYYCASSNICNALNLQGNTYWGQGTLVTVSS	2 nM
R1-C7-hFc (antibody, V domains shown) VH: QVQLQESGGGPVQAEGSLRLSCTASGNLYRDPCMGWFRQAPGKDREGVAAMNTGADSTFYARSVKGRFTISHDNAKNTLYLQMNSVKPEDTAMYYCAASRYCTERTWTWRYDYDYWGQGTQVTVSS	2.56 nM

Next, values leading:

Kd	Binder
1.45 nM	hzR1-C10-hFc (antibody, V domains shown) VH: EVQLVESGGGLVQPGGSLRLSCAASGSTFDEYDMGWYRQAPGGKCELVSTISTIDASTYYADSVKGRFTISRDNSKNTLYLQMNSLRAEDTAVYYCEADDRGTWDRGGCWGQGTLVTVSS
2.53 nM	hzR1-C7-hFc (antibody, V domains shown) VH: EVQLVESGGGLVQPGGSLRLSCAASGNLYRDPCMGWFRQAPGKDREGVAAMNTGADSTFYARSVKGRFTISRDNAKNTLYLQMNSLRAEDTAVYYCAASRYCTERTYTWRYDYDYWGQGTLVTVSS
3.74 nM	hzR1-F9-hFc (antibody, V domains shown) VH: EVQLVESGGGLVQPGGSLRLSCAASGFTVHDMGWYRQAPGKECELVSTISSDASTYYADSVKGRFTISRDNAKNTLYLQMNSLRAEDTAVYYCAADSFTGLQLAECKADFGYWGQGTLVTVSS
